Test in all cases: SPR
Experiment [1] concerns the target recombinant matrilin-3 A-domain (human) (UniProt O15232).
In experiment [2] the target is T1, full-length type IX collagen (human, UniProt P20849 24-921; Q14055 24-689; Q14050 26-684).
Experiment [3] addresses T1, full-length type IX collagen. This is another data set of the same source.

For three molecules, Kd results are on record in paper PMC2673055 (The Journal of biological chemistry, 2007).

Read-outs that look alike come from different tables or passages of the source.

The Kd is a measure of binding affinity in units of concentration. Consider “vitreous form of human type IX collagen (from UniProt Q14055 24-689; Q14050 26-684) (complex)”, for which the Kd in experiment [1] stood at 3.25 nM.

B1: full-length matrilin-3 (natural protein, UniProt O15232 29-486, looked up)
chain: DPVARPGFRRLETRGPGGSPGRRPSPAAPDGAPASGTSEPGRARGAGVCKSRPLDLVFIIDSSRSVRPLEFTKVKTFVSRIIDTLDIGPADTRVAVVNYASTVKIEFQLQAYTDKQSLKQAVGRITPLSTGTMSGLAIQTAMDEAFTVEAGAREPSSNIPKVAIIVTDGRPQDQVNEVAARAQASGIELYAVGVDRADMASLKMMASEPLEEHVFYVETYGVIEKLSSRFQETFCALDPCVLGTHQCQHVCISDGEGKHHCECSQGYTLNADKKTCSALDRCALNTHGCEHICVNDRSGSYHCECYEGYTLNEDRKTCSAQDKCALGTHGCQHICVNDRTGSHHCECYEGYTLNADKKTCSVRDKCALGSHGCQHICVSDGAASYHCDCYPGYTLNEDKKTCSATEEARRLVSTEDACGCEATLAFQDKVSSYLQRLNTKLDDILEKLKINEYGQIHR
B1 displayed a Kd in experiment [2] of 1.5 nM.

B2: recombinant matrilin-3 A-domain (domain or fragment, human, UniProt O15232 76-263, looked up)
chain: VCKSRPLDLVFIIDSSRSVRPLEFTKVKTFVSRIIDTLDIGPADTRVAVVNYASTVKIEFQLQAYTDKQSLKQAVGRITPLSTGTMSGLAIQTAMDEAFTVEAGAREPSSNIPKVAIIVTDGRPQDQVNEVAARAQASGIELYAVGVDRADMASLKMMASEPLEEHVFYVETYGVIEKLSSRFQETFC
B2 showed a dissociation constant Kd in experiment [3] of 1.37 nM.
